In patent US20150368668A1 (RUTGERS THE STATE UNIVERSITY OF NEW JERSEY, published 2015):

Columns and labels:
[1] = biological target: human CD81, cellular receptor on the cells infected with HCVcc (human) (UniProt P60033); assay: cell-based or functional assay
[2] = biological target: T1, Human CD81-LEL (residues 112-202), protein-A tag cleaved by PreScission Protease (human, UniProt P60033 112-202); assay: ELISA, CD81-LEL coated, detection with 2A12 and anti-mouse-HRP
T1 construct: range 112-202
T1 sequence: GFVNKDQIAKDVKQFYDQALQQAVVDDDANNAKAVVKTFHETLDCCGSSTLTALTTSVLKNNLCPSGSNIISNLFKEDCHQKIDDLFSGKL

[3] = biological target: T1, Human CD81-LEL (residues 112-202), …; assay: SAXS envelope of the complex

human CD81, cellular receptor on the cells infected with HCVcc (human), sequence (P60033 whole entry, the tested form may be a part): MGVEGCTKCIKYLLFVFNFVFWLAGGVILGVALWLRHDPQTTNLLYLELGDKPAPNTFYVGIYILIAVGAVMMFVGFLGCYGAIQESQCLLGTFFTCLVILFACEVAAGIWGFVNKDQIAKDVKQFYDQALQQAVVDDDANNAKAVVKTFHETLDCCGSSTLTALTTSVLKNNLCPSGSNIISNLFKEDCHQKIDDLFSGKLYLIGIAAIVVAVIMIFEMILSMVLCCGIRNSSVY

Q: “purified eE2 (J6 genotype 2a E2 ectodomain aa 384-664, released from the Fc tag by thrombin) (from UniProt P26660 385-664)” was tested. Which 50% blocking efficiency, HCVcc focus forming units [1] did it give?
A: 25 to 150 µg/mL

Q: With “purified eE2-C656S (J6 E2 ectodomain aa 384-664 with C656S, released from the Fc tag by thrombin) (from UniProt P26660 385-664)” as the molecule, how does the 50% blocking efficiency, HCVcc focus forming units [1] read?
A: 25 to 150 µg/mL

B1: full-length E2 ectodomain eE2 (residues 384-656, genotype J6), produced with a C-terminal protein-A tag and released by PreScission Protease (other)
chain: RTHTVGGSAAQTTGRLTSLFDMGPRQKIQLVNTNGSWHINRTALNCNDSLHTGFIASLFYTHSFNSSGCPERMSACRSIEAFRVGWGALQYEDNVTNPEDMRPYCWHYPPRQCGVVSAKTVCGPVYCFTPSPVVVGTTDRLGAPTYTWGENETDVFLLNSTRPPLGSWFGCTWMNSSGYTKTCGAPPCRTRADFNASTDLLCPTDCFRKHPDTTYLKCGSGPWLTPRCLIDYPYRLWHYPCTVNYTIFKIRMYVGGVEHRLTAACNFTRGDRC
modifications: N-linked glycans from GnTI- HEK293T cells; whether deglycosylated in the ELISAs is not stated
notes: Monomeric; also called eE2 (384-656)
Q: Does B1 bind [2]?
A: binds

B2: eE2(ΔHVR1) (residues 413-656, genotype J6) (other)
chain: LVNTNGSWHINRTALNCNDSLHTGFIASLFYTHSFNSSGCPERMSACRSIEAFRVGWGALQYEDNVTNPEDMRPYCWHYPPRQCGVVSAKTVCGPVYCFTPSPVVVGTTDRLGAPTYTWGENETDVFLLNSTRPPLGSWFGCTWMNSSGYTKTCGAPPCRTRADFNASTDLLCPTDCFRKHPDTTYLKCGSGPWLTPRCLIDYPYRLWHYPCTVNYTIFKIRMYVGGVEHRLTAACNFTRGDRC
modifications: glycosylated (SAXS sample)
notes: also called eE2(DHVR1); eE2 (DHVR1)
Q: Does B2 bind [3]?
A: binds
